In the nanobody polyreactivity screen of Harvey et al. (2022):

Test: yeast display, Sf9 membrane polyspecificity reagent, FACS + sequencing; frameworks hold sequencing errors
How it was run: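 Galactose-induced (36–48 hours) yeast carrying a synthetic nanobody display library were exposed to 10% biotinylated, detergent-solubilized Sf9 membrane reagent at 4 °C for 1 hour. FACS followed streptavidin microbead enrichment, using low and high (top ~1%) gates for expression (anti-HA) and reagent binding (streptavidin). Colony PCR, MiSeq 2 × 250 sequencing and CDR-length filtering followed. Labels for polyreactivity reflect the gate of origin.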

Sequence | polyreactivity (PSR sort gate)
QVQLVESGGGLVQAGGSLRLSCADSGGTFESYAMGWYRQAPGKERELVAAITGRGGRTYYADSVKGRFTISRDNAKNTVYLQRNSLKPEDTAVYYCAARSPPRGYSRILDYWGQGTQVTVSS | high polyreactivity
QVQLVESGGGLVQAGGSLRLSCAASGRTFIRYAMGGYRQATGKERELVAAISWSGGSTYYADSVKGRFTISRDNAKNTVYLQMNSLKPEDTAVYYCARRVGYKFSYDYWGQGTQVTVSS | high polyreactivity
QVQLVESGGGLVQAGGSLRLSCAASGLIFWYYTMGWYRQAPGKERELVAAITIGGSTYYADSVKGRFTISRDNAKNTVYLQMNSLKPEDTAVYYCNTRRGRSQGGRYEYDYWGQGTQVTVSS | low polyreactivity
QVQIVESGRGLVQAGGSLRLSCAASGSIFHPKAMGWYRQAPGKERELVAAITSGGGSTYYADSVKVRYTISRDNAKNTVYLQMNSLKPEDTAVYYCNKVFVLPYKFVAWFDYWGQGTQVTVSS | low polyreactivity
QVQLVESGGGLVQPGGRLRISCAASGRIFGRYAMGWYRLEPGKERELVAAITSSGGNTYYADSVKGRFTISRDNAKNTVYLQMNSMKPEDTAVYYCIARSARSRRQSDYWGQGTHVTVSS | high polyreactivity
QVQLVESGGGLVLAGGSLRLSCAASGRIYVFYAMGWYRQAPGKEREFVATISYSGDTTYYADSVKGRFTISRDNAKNTVYLQMNSLTPEDTAVYYCAADQVPSYYYVPLGYDSWGQGTQVTVSS | low polyreactivity
QLQLVESGGGLVQAGGSLRLSCAASGSTYATYTMGWYRQAPGKERELVAAISVSGSRTYYADSVKGRFTISRDNAKNTVYLQMNSLKPEDTAVYYCNADPPVKLYLYDYWGQGTQVTVSS | high polyreactivity
QVQLVESGGGLVQAGGSLRLSCAASGFTFGYYVMGWYRQAPGKERELVAAITSGGRTKYADSVKGRFTISRDNAKNTVYLQMNSLKPEDTAVYYCAAKSRVHVDYWGQGTQVTVSS | high polyreactivity
QLQRVESGGGLVQAGGSLRLSCAASGITYRYYVMGWYRQAPGKETQLVAAITSGVSTYYADSVKGRFTISRDNAKNTVYLELNSLKPEDTAVDYCAADEPWTYYLYGKMYYWGQGTQVTVSS | high polyreactivity
QVQLVESGGGLVQAGGSLRLSSAASGFTLGYYAMGWYRQAPGKEREMVAAIRSSGTRTYYADSVKGRFTISRDNAKYTVYLLMNSLKPEDTAVYYCAARTPSYEMDYWGQGTQVTVSS | high polyreactivity
QVQLVESGGGLVQAGGSLRLSCAASGLMFRHYAMGWYRPAPGKERELVAAIDYSGGSTYYADSVKGRFTISRDNAKNTVYLQMNCLKPEDTAVYYCNRYHRLRVVPSRFVKYDYWGQGTQVTVSS | low polyreactivity
QVQLVESGGGLVQAGGSLRLSCDASGRTFGRNAMGWYRQAPGERELGAVISRGGSTYYADSVKGRFTISRDNAKNTVYLQRNSLKPEDTAVYYCNADTVYTRTAPYDYWGQGTQVTVSS | low polyreactivity
QVQLVESGGGLVQAGGSLRLSCAASGLIFKRYAMGWYRQAPGKERELVAAISSGTRTYYADSVKGRFTISRDNAKNTVYLQMNSLKPEDTAVYYCAARLDYWGQGTQVTVSS | high polyreactivity
QVQLVESGGGLVQAGGSLRLSCAASGITFYTYAMGWYRQAPGKERELVAAITNGGNTSYADSVKGRFTISRDNAKNTVYLQMNSLKPEDTAVYYCAAVVTLPIWGNWYYVRYGYWGQGTQVTVSS | low polyreactivity
QVQLVESGVGLVQAGGSLRLSCAASGIIFYDYVMGWYRPAPGKEWELVAAISRSGGSTYYADSVKGRFTISRDNAKNTVYLQMNSLKPEDTAVYYCAADTVVTEMEYCGQGTQVTVSS | high polyreactivity
QVQLVESGGGLVQAGGSLRLSCAASGSTFGNYAMGWYRQAPGKERELVATISRSGGSTYYADSVKGRFTISRDNAKNTVYLQMNSLKPEDTAVYYCNRRYYTRKPDYNSWGQGTQVTVSS | high polyreactivity
QVQLVESGGGLVQAGGSLRLSCAASGSTFQYNAMGWYRQAPGKEREFVAAITNGGGSTYYADSVKGRFTISRDNAKNTVYLQMNSLKPEDTAVYYCNARFRYARYSQRYDYWGQGTQVTVSS | high polyreactivity
QVQLVESGGRLVQAGGSLRLSCAASGLTLFRYDQGWYRQAPGKERELVAAIDYGGGTYYADSVKGRFTISRDNAKNTVYLQMNSLKPEDTAVYYCAVEPEYKYYEGDYWGQGTQVTVSS | low polyreactivity
QEQLVESGGGLDQAGGSLRLICDASGFTFLGYAMGWYRQAPGKERELVAAITSGGRTNYADSVKGRFTISRDNAKNTVYLQMNSLKPEDTAVYYCAAYRWDYYYWGQGTQVTVSS | high polyreactivity
QVQLVESGGGLVQAGGSLRLSCAASGRIFRINAMGWYRQAPGKERELVASITSRAGSTYYADSVKGRFTISRDNAKNTVYLQMNSLKPEDTAVYYCAARSVYTYYRLDYWGQGTQVTVSS | high polyreactivity
QVQLVESGGGLVQAGGSLRLSCAASGRIFNSYAMGCYRQAPGKERELVAAINWTDVSTYYADSVKGRFTISRDNAKNTVYLQMNSLKPEDTAVYYCAAVRWGSYTLSDDYWGQGTQVTVSS | low polyreactivity
QVQLVESGGGLVQAGGSLRLSCAASGITFSTYAMGWYRQAPGKERELVAAITKSGGSTYYADSVKGRFTISRDNAKNTVYLQMNSLKPEDTAVYYCAAKGWIWNPYNYWGQGTQVTVSS | low polyreactivity
